{"source": "a protein production outcome set (Wang et al. 2014)", "test": "label from the status in PepcDB records"}
{"sequence": "MLNSHPKKTQSLYRAGLVVLQITESLLILALLYQAINKLIFINNYSIKFMLTFILYSPEFFMANLTTYYFIYEKFKILHSIIVITKLFQIILTLLLFILGFIFKIYVYQTSLAIILGITVVYLVFNVTILVLIKAKIKNLE", "values": [{"measurement": "protein production", "value": "failed"}]}
{"sequence": "MNSKENLKIVQLSDLHIKKDFNADRLDKVIQKTNEQNPDFIIFSGDLYDNYSQYNENEAVISKLKSLKAKYGKIAIWGNRDYGGGAVKEYANIMAESDFSLLRNENQVFTLDNGKKILFTGLDDALLGNPQFPSLEHHHHHH", "values": [{"measurement": "protein production", "value": "not failed"}]}
{"sequence": "MVDTNHKIAFCIDSDGCAMDTMTYKHQLFFGPIAADIFGISEQERTSFLKEWDRVNLYSRTRGVNRFVGLVMGLEFAGVEHIDKLKEWVETTDSLSNNSLELALANDFSRDLEKALEWSNEVNRQIKNYEGDSLAFSGVLESLERLSQFGNVYVVSSANKEAVWQEWEEQGLLKYVDDIYCQDRGKKEDVIATLIASGYCRETILMVGDSLGDLAAAEQNGIAFYPVLVGKEVKSWEILREDIGEAFAKGQFEQQRQKESINTFWANLDN", "values": [{"measurement": "protein production", "value": "failed"}]}
{"sequence": "MRRLPPWMLGGASTGEAAARNGSQPEAPKTKAEKRPKRVQKTKEKDLNLKSDEPKRVPRKIREEAKRSPEVIQSVTVPEDDDLTVDDLLSFANEVM", "values": [{"measurement": "protein production", "value": "failed"}]}
{"sequence": "MASFPHPGSVTVCEINRDLITAQNLSDERAQETYGKVLGMVFSPVSFDSTPSSLQENEGQENGDKASGESKGLVATLQMKVADSLKQILQPTDVTLLSEIDLQGVSWHQGKHIIAFISGANQVTIRDYEDKDEKEPCILTSDSQRNVKALEWRPNGGKSLSIACRGGICIWAASYPGNMALVRSGGSALRGSLSRGSGTRWILVDFLRCQNDEQISALSWSPCGRYLASASYDSSSFTIWDVSQGAGTPIRRGLGGISMLKWSPTGDYFFAARFDGTFCLWETNTWTSEPWSLSSGSGSVTGAIWDPEGRFILISFSKSSTLGSVHFSSKPPSLDAHLLPVELPEIASLTGCEGIEKIAWDASGERLAVSYKGGDENYKGLIAIYDTRRTPIVSASLVGFIRGPGENPKALSFSFHDKFKQGPLLSVCWSTGFCCTYPLIFRSHVLP", "values": [{"measurement": "protein production", "value": "failed"}]}
{"sequence": "MKRLLFTVISLLFSVSVLAAESSADRIDLTSSTVGYAAIVIFILAYILVMGEEKLHMRKSKPVLVAAGVIWILIGFVYTGDNAVLAEEAFRENLLKFAELMLFLLVAMTYINALEERRLFDALSAWLMKKGFTYRKLFWITGFLAFFISPIADNLTTALLMSAVVMKVAEGNKKFVALCCSSIVIAVNAAGAFSPFGDITTLMVWQSGKVEFTEFLQLFVPALVNYLIPAVIMSFFIENKSPTTLHTEVELKRGALRITFLFLLTVATAVACHIWLHLPPVLGMMMGLGYLQFFGYFLRMTLPGSLARKRAMAAREGDQKRLQQLGGVVPFDVFSRVSRAEWDTLLFFYGIVLCVGGLGFMGYLGLLSESLYGGLDPTIANSILGVVSALVDNIPVMFAVLSMDPEMSTGHWLLITLACCTGGSLLSIGSASGVALMGQARGYYTFMSHLKWTPVIAIGYAASILLHLWLNQATFLS", "values": [{"measurement": "protein production", "value": "failed"}]}
{"sequence": "MEKLKSLIPEDLLQTVKSSSVDDLLSTSSSLLRLFLGLPQFHQAVSELANPELGCCGKNEETSLDLKRRGNHCFRSRDFDEALRLYSKALRVAPLDAIDGDKSLLASLFLNRANVLHNLGLLKESLRDCHRALRIDPYYAKAWYRRGKLNTLLGNYKDAFRDITVSMSLESSLVGKKQLQNELKAIPDYQNNQTLEHDEYRPSNDAGVDHLPSVQMEVKLRCVSTKEKGRGMVSECDIEEASVIHVEEPFSVVISKSCRETHCHFCLNELPADTVPCPSCSIPVYCSESCQIQSGGMLSTNEMDKHHIFQKLPDDIVEHIKGVTSADIYYFATDLIQEHQHECRGANWPAVLPSDAVLAGRIIMKLINQGKAATDLSNLQEILELSHTYSKMNPENKLELHLLSIVLIWCLSKSSCPNLSVCEASVTQTIILLSQIKVNSIAVARMKSSGDSFKCLPSGNISTKEPIQSLEQIRVGQALYKTGSLFNHSCKPNIHLYFLSRGLIMQTTEFVPTGCPLELSYGPEVGKWDCKNRIRFLEEEYFFHCRCRGCAQINISDLVINGYGCVNTNCTGVVLDSNVATCESEKLNHFFTAPRNVDQQVQMREKVYADVGEVASSLLSKPSGSLHIEPEICLKCGSRCDIENSHAEVNKAWNHMRRVEELMNSGRANYSVLSDCSRSIAVLRTFLHMYNKDIADAEDKVAQACYLAGELVDARKHCEASIKILKRLYEDEHVVIGNEMVKLASIQLASGDSSGAWDTTKRSSQIFSKYYGSHAETLFSYLPCLKQETAKAVNLSTS", "values": [{"measurement": "protein production", "value": "failed"}]}
{"sequence": "MAVYANTSVQDFYEFWLEEVKKKSLSYNSYYSFKKTVQNYILPLYGRLSMGKLRKNHVKRIYKKTYETSPSVAKIVKTVLTTSFKYALRYGYVEEDYVTGLKWNRVILEHHHHHH", "values": [{"measurement": "protein production", "value": "failed"}]}
{"sequence": "SSLICSISNEVPEHPCVSPVSNHVYERRLIEKYIAENGTDPINNQPLSEEQLIDIKVAHPIRPKPPSATSIPAILKALQDEWDAVMLHSFTLRQQLQTTRQELSHALYQHDAACRVIARLTKEVTAAREALATLKPQAGLIVPQAVPSSQPSVVGAGEPMDLGELVGMTPEIIQKLQDKATVLTTERKKRGKTVPEELVKPEELSKYRQVASHVGLHSASIPGILALDLCPSDTNKILTGGADKNVVVFDKSSEQILATLKGHTKKVTSVVFHPSQDLVFSASPDATIRIWSVPNASCVQVVRAHESAVTGLSLHATGDYLLSSSDDQYWAFSDIQTGRVLTKVTDETSGCSLTCAQFHPDGLIFGTGTMDSQIKIWDLKERTNVANFPGHSGPITSIAFSENGYYLATAADDSSVKLWDLRKLKNFKTLQLDNNFEVKSLIFDQSGTYLALGGTDVQIYICKQWTEILHFTEHSGLTTGVAFGHHAKFIASTGMDRSLKFYSL", "values": [{"measurement": "protein production", "value": "not failed"}]}
{"sequence": "MQLINLRYISNWRVLLIAVVVLLCLLLSSQLGVVKPYEIVDPLDILGEGSTLFLTILIVIFMVTDRPRGNVTNLFYSGGLLLIFSMTLDVLDEFFRYPDALRLLSWLESFPLPVGLIIISFAAAEWRRENKMLSRQLMVREKNLRSHQWVDPLTSLYTTPYFIKLVEREIALQNSTDAESTVLVSVNFKNFAQYNHEMGTKAGDELLHQASELMVLLLRPQDCLCREHSDHFLILLPQTRLSQADRLMKVIAQNLNSELELPNYMSVEVHTHRVEELSAVDAITALHTQVEEMTHYAPLAN", "values": [{"measurement": "protein production", "value": "failed"}]}
{"sequence": "MKQTAESIRDRFMKLGIDVPVEDIESRLDELIKKFKVPSNEAQRSVTNYFLKKYSIPKNEFYVRQAEPQLTKIVDIVENGQWANLKAKVIQLWENTHESISQVGLLGDETGIIKFTIWKNAELPLLEQGESYLLRSVVVGEYNDRFQVQVNKNSSIEKLSEPIEVGGGDFTPAAREAELRNIADLTGNQWATVRGKVIQLWENSHESIEQAGLIGDETGVIKFTNWASSELPDMEEGRSYLLKNVVVNEWNGKAQVQLNRSSSIEELDEDIEVRTSMSSYFGAMVDIQTGSGLIKRCPECKRALVKGACAEHGKVKGEYDLRIKAVLDSGTSTQDALINRELTEELSGISLDSAIAMAADALDPGVVLDKLKHELVGRYYTITGHKLDRYILVESITPRTSLDRELLDQMLAEPIAQPEVELEHHHHHH", "values": [{"measurement": "protein production", "value": "not failed"}]}
{"sequence": "IKILKNFDEAIIVDAASLDPESLYQRTYAGKMTFGRVSDLGQFIRESEPEPDVRKSKGSMFSQAMKKWVQGNTDEAQEELAWKIAKMIVSDIMQQAQYDQPLEKSTKL", "values": [{"measurement": "protein production", "value": "failed"}]}
{"sequence": "MLKERILSAIAMIIAVLAGIFLLSPLPFTLILAAVITAAIWEWAQFAGFKRSLSRAIITFVTICLFILLIFANTHYIRAGRFLTDQTIPLLFISCCWWLIAFGLVISYPKSASLWSKSITAKFIFGFCTLIPFFIAILALRFNNYAFNQFQGAYLLLYVCLLVWCADSGAYFFGRAFGKRKLAAKVSPSKSWEGALGGLITSCVMALLFIKLTPNNIFGREFETLPFIIVSVATVAVSSLGDLAESMFKRQANIKDSSNLIPGHGGILDRIDSLTAAIPFFATLFFFVL", "values": [{"measurement": "protein production", "value": "failed"}]}
{"sequence": "RDSLFICAVATTETSRIPGITGAGASPELTEYTPAADVELIVHDAPRCLPEIPQTIVEGEAAPTPAVITKAALELAEVPFMVADAGASVKPDVPYININSEPGGDIRTGRAVTEPQRIYERGLMVGRTLSSLTEHLVVGESTPAGTTTALGVLTALGYDADFRVSASMPHNPHDLKREVVMAGLSNAGIEKGDCSREPFRAVEAVGDPMIPAVAGICMGSTVPVTLAGGTQMTAVCALMRAIDPDFDFSDTAIATTIFVAEDSTSDINRIAEQIGDIDIYVVDPDFGSASHRGLHEYLNGSVKEGVGAGGAMLLALLH", "values": [{"measurement": "protein production", "value": "failed"}]}
{"sequence": "MEEERRDDYKFLRIQDAFKALHLHVNLIGVIVELGFSNGSDCSCTLKIVDPWYSGSGLPVKFVARTIRDLPRVESIGDIILLSRVKIVLINRKITALCNETTSSSFALFNGKHSVDSIPYQSSPKFLMREQDKNFLSNLREWMITYKFEDGS", "values": [{"measurement": "protein production", "value": "not failed"}]}
{"sequence": "MRTSGGQMNISSATLANTQRTIDSYEGCADDYSRIVDQFPWPSLEAALRQVATAAGKGGQILEIGSGAGWDADFLETQGVSVRRTDATRRFLELQAARGKKGELLNVITDDLGGPYDAVVALCVLIHAPRDQTGPVLEKIVAALRPGGVFLVSMRDGDGETSGAYHMSYWRRDDFALCIKEAGLALEWDAHRVNRDGDGWHTFYARRPE", "values": [{"measurement": "protein production", "value": "failed"}]}
{"sequence": "GQEYRALPGADTGRPDLDRSYALVYPAPRPKALLLLVPGLLGGSTNFALLAERLRAMAPGLEVWAWERRANGLEDRRGFLREDPVAYYRALALPDLTPLRAWGLEVHLKDLDLAVEAARARAPVVLAGHSLGAALAGLYALLHGEKLSGLVLLDGAPGVVPLAEEAFYEGADLPFGRLVGYRAFLRGEGSPAVELLGLGPKALALAEAEAFLAAKRPEEDLPFGPYRATREALALLRVDDDYSLFPVFSVSAGRAWAREGFSLLGLLQGRLVRTVRGPRAGPIAWRDTGEATDPRAFLRAFALPETGFSEWYFPYRLLLEVGGYPYVLRGLKPRALPYPVLALGAGRGLYPRAEDFRLGELFPGTEARAQVLPGLTHLDLLTEREGRTAGLLLRYLQDL", "values": [{"measurement": "protein production", "value": "failed"}]}
{"sequence": "MLPPGMVAAESDFYLRRLWGLPHEDLKSEPRYLATFTVGINQKANIDACVKKFSENFTIVLFHYDGRVTEWDEFEWSKTAIHISVRKQTKWWYAKRFLHPDIVARYDYIFVWDEDLGVEHFNAEEYVKMVKKHGLEISQPGLEPNQGLTWQMTKRRGDMEVHKITEERPGWCSDPHLPPCAAYVEIMAPVFSRNAWRCVWHVIQNDLVHGWGLDFALRRCVEPAHEKIGVVDSQWVVHQSFPSLGNQGEATDGKAPWQGVRDRCKKEWTMFQSRMANAEKDYFKSLQVEGSSNSTATTI", "values": [{"measurement": "protein production", "value": "failed"}]}
{"sequence": "AYPDFAPQKFKEKTQGQVKILEDSFLKSSFPTQAELDRLRVETKLSRREIDSWFSERRKLRDSMEQAVLDSMGSGK", "values": [{"measurement": "protein production", "value": "not failed"}]}
{"sequence": "MASQTNQTVVDTKKIETENPPKPQVPASSCRKRVKDDNATFFANLKDHMDEFIHASMDEHKTCFKNTMDKIFGSFSKAEAVAEKQIEAKEVVEIHSPLQTAVTK", "values": [{"measurement": "protein production", "value": "not failed"}]}
{"sequence": "MSATTTNLKEAIVNRRSIRKVTKNDAITKERIEEVLKTALHAPTSFNMQSGRMVVLMDGEHEKFWDIVKETLRARVPAENFEATVERLKGFHAGVGTVLFFEDQATVEKMQENAPLYKDQFPFWSHQGNAMLQHTVWMLLSAEGIGASLQHYNPIVDAEVKETWNIPAEWSLVGQMPFGEPNEQPAERTFLPTEDVVKFY", "values": [{"measurement": "protein production", "value": "not failed"}]}
